We go through one molecule from article PMC5470993 (2017).

What is called Kd is a measure of binding affinity in units of concentration. Read a low Kd as tighter binding.

The test has as its target Rac1 (Homo sapiens, UniProt P63000). The test is described as follows: GST pull-down.

B1: PAK1 RBD (protein)
chain: KKEKERPEISLPSDFEHTIHVGFDAVTGEFTGMPEQWARLLQTSNITKSEQKKNPQAVLDVLEFYNSKKTSNSQKYMSFTDKSA
B1 showed a Kd of 0.243 µM.
